# In US20240361334A1:
# Legend:
# [1] = target: human C1q protein (Sigma-Aldrich #C1740) (human) (UniProt P02745); experiment: HTRF sandwich, biotin-anti-human Fab 1/SA-d2, Eu-anti-C1q, buffer 1
# [2] = target: human C1q protein (Sigma-Aldrich #C1740) (human) (UniProt P02745); experiment: HTRF sandwich, biotin-anti-human Fab 1/SA-d2, Eu-anti-C1q, buffer 2
# [3] = target: human C1q protein (Sigma-Aldrich #C1740) (human) (UniProt P02745); experiment: HTRF sandwich, biotin-anti-human Fab 2/SA-d2, Eu-anti-C1q
# [4] = target: human C1q protein (Sigma-Aldrich #C1740) (human) (UniProt P02745); experiment: HTRF sandwich, biotin-Protein L/SA-d2, Eu-anti-C1q
# [5] = target: Human myeloma IgG4 purified from human plasma (Sigma-Aldrich #I4764); experiment: HTRF saturation binding, anti-Fab-d2 on Eu cryptate-IgG
# [6] = target: Human myeloma IgG1 purified from human plasma (Sigma-Aldrich #I5154); experiment: as above
# [7] = target: Human myeloma IgG4 purified from human plasma (Sigma-Aldrich #I4764); experiment: HTRF saturation binding, biotin-anti-Fab/SA-d2 on Eu cryptate-IgG
# [8] = target: Human myeloma IgG1 purified from human plasma (Sigma-Aldrich #I5154); experiment: as above
# [9] = target: Human myeloma IgG2 purified from human plasma (Sigma-Aldrich #I5404); experiment: as above
# [10] = target: human C1q protein (Sigma-Aldrich #C1740) (human) (UniProt P02745); experiment: HTRF sandwich, biotin-anti-human Fab 1/SA-d2, Eu-anti-C1q, 155 mM NaCl
# [11] = target: human C1q protein (Sigma-Aldrich #C1740) (human) (UniProt P02745); experiment: HTRF sandwich, biotin-anti-human Fab 1/SA-d2, Eu-anti-C1q, 135 mM NaCl
# [12] = target: human C1q protein (Sigma-Aldrich #C1740) (human) (UniProt P02745); experiment: HTRF sandwich, 30 nM biotin-anti-human Fab 1/SA-d2, Eu-anti-C1q, buffer 2
# [13] = target: human C1q protein (Sigma-Aldrich #C1740) (human) (UniProt P02745); experiment: HTRF sandwich, 50 nM biotin-anti-human Fab 1/SA-d2, Eu-anti-C1q, buffer 2
# [14] = target: human C1q protein (Sigma-Aldrich #C1740) (human) (UniProt P02745); experiment: HTRF sandwich, 40 nM biotin-anti-human Fab 1/SA-d2, Eu-anti-C1q, buffer 2
# [15] = target: human C1q protein (Sigma-Aldrich #C1740) (human) (UniProt P02745); experiment: HTRF sandwich, biotin-anti-human Fab 1/SA-d2, Tb cryptate-C1q
# [16] = target: human C1q protein (Sigma-Aldrich #C1740) (human) (UniProt P02745); experiment: AlphaLISA sandwich, biotin-anti-human Fab 1/streptavidin donor beads, anti-C1q acceptor beads
# [17] = target: human C1q protein (Sigma-Aldrich #C1740) (human) (UniProt P02745); experiment: HTRF sandwich, anti-human Fab 2-d2 without streptavidin, Eu-anti-C1q
# [18] = target: human C1q protein (Sigma-Aldrich #C1740) (human) (UniProt P02745); experiment: HTRF sandwich, biotin-anti-human Fab 1/SA-d2, Eu-anti-C1q, buffer 2, with 150 nM human TNF-α
# Sequence of Adalimumab (+150 nM TNF-α) (P01375 77-233): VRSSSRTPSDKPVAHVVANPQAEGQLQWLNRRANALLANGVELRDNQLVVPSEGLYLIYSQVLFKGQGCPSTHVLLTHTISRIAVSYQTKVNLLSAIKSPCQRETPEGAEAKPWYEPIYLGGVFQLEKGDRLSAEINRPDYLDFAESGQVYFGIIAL
substance,measurement,setting,value
Ipilimumab IgG2 isotype (InvivoGen #hctla4-mab2) (from UniProt P01859 1-326) (antibody),EC50,[1],53.3 nM
Adalimumab (antibody),EC50,[2],7.2 nM
same,EC50,[3],8 nM
same,EC50,[4],69.8 nM
"Anti-human Fab 1: anti-human IgG Fab, mouse IgG2b, monoclonal antibody, clone 4A11 (ThermoFisher Scientific #SA1-19255)",Kd,[5],0.44 nM
same,Kd,[6],0.16 nM
same,Kd,[7],0.33 nM
same,Kd,[8],0.2 nM
same,Kd,[9],0.37 nM
Obinutuzumab (antibody),EC50,[10],19.7 nM
same,S/B,[10],1.6
same,EC50,[1],18.6 nM
same,EC50,[11],18.6 nM
Human IgG2 Isotype Control Recombinant Antibody (BioLegend #403602),EC50,[12],19.2 nM
same,EC50,[13],30.6 nM
same,EC50,[1],34 nM
same,EC50,[14],25.7 nM
same,EC50,[15],73.6 nM
Non-glycosylated Rituximab (InvivoGen #hcd20-mab12) (antibody),EC50,[1],25 nM
Ipilimumab (antibody),EC50,[1],13.2 nM
Rituximab (antibody),EC50,[16],26.8 nM
same,EC50,[10],28.9 nM
same,EC50,[1],15.5 nM
same,EC50,[3],11.7 nM
same,EC50,[11],15.5 nM
same,EC50,[17],24 nM
same,EC50,[15],14.4 nM
Human IgG1 Isotype Control Recombinant Antibody (BioLegend #403502),EC50,[16],23.7 nM
same,S/B,[16],752
same,EC50,[1],17.3 nM
same,EC50,[15],13.7 nM
"Anti-human Fab 2: anti-human IgG Fab, mouse IgG2b, monoclonal antibody, clone 2A11 (GeneTex #GTX27497)",Kd,[5],0.45 nM
same,Kd,[6],0.2 nM
same,Kd,[7],0.4 nM
same,Kd,[8],0.26 nM
same,Kd,[9],0.47 nM
Rituximab IgG2 isotype (InvivoGen #hcd20-mab2) (from UniProt P01859 1-326) (antibody),EC50,[10],37.6 nM
same,EC50,[1],38.7 nM
same,EC50,[11],38.3 nM
Atezolizumab (antibody),EC50,[12],7.2 nM
same,EC50,[13],10.9 nM
same,EC50,[1],13.2 nM
Non-fucosylated Rituximab (InvivoGen #hcd20-mab13) (from UniProt P01857 1-330) (antibody),EC50,[1],16.2 nM
Non-glycosylated Cetuximab (InvivoGen #hegfr-mab12) (antibody),EC50,[1],10.2 nM
same,S/B,[1],1.4
Cetuximab (antibody),EC50,[1],16.9 nM
Cetuximab IgG2 isotype (InvivoGen #hegfr-mab2) (from UniProt P01859 1-326) (antibody),EC50,[1],48 nM
Adalimumab (+150 nM TNF-α) (from UniProt P01375 77-233),EC50,[18],4.6 nM
same,S/B,[18],6.9
